According to patent CN106866820A (AB-MAT MEDICINE TECH (SHANGHAI) CO LTD, dated 2017):

Assays:
[1] = target: T1, 人角蛋白18(CK18), endogenous protein in PC9 cell lysate / membrane protein extract (human, UniProt P05783 2-430); experiment: Western blot on PC9 whole-cell lysate, antibody diluted 1:1000 and 1:2000
T1 construct: Endogenous protein in lysate or extract; also called 48KD条带
T1 sequence (looked up): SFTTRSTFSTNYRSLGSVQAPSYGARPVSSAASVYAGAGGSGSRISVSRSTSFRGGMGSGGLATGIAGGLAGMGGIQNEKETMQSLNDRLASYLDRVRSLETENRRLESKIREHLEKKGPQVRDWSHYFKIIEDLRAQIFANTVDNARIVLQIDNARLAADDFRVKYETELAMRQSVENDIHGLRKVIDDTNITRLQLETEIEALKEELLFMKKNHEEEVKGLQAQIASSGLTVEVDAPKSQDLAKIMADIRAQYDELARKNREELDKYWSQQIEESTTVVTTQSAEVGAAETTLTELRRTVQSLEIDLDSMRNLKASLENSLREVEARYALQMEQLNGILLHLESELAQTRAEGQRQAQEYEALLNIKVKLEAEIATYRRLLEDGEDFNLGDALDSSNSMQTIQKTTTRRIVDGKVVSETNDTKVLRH

[2] = target: T2, 人角蛋白18(CK18), on PC9 human lung cancer cells (human, UniProt P05783 2-430); experiment: immunofluorescence on PFA-fixed non-permeabilised PC9 cells, antibody 1:1000, FITC goat anti-mouse secondary
T2 construct: whole, on cells; Endogenous CK18 on non-permeabilised PFA-fixed PC9 cells (IF) or live PC-9 cells (capture); also called human keratin 18; cytokeratin 18
T2 sequence (looked up): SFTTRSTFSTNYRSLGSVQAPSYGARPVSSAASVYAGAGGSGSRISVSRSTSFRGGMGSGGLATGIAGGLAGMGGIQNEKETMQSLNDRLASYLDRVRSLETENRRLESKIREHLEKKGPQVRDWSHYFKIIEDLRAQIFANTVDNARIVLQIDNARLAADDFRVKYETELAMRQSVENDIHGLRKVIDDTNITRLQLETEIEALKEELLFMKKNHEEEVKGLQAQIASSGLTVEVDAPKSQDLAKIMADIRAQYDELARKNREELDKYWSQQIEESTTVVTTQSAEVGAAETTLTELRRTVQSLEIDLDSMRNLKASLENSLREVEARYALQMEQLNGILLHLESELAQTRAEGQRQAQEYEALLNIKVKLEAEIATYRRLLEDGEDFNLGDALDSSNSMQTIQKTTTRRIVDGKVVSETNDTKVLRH

B1: anti-CK18(克隆号1P1)抗体 (antibody, V domains shown)
VH: EVQLQESGPSLVKPSQTLSLTCSVTGDSFTSGYWNWIRKFPGNKLEYMGYISYSGNCYYNPSLKSRISITRDTSKNQYYLQMNSVTTEDTATYFCARASAYYYGSFYDYAMDYWGQGTSVTVSS
VL: DIVMTQSQKFMSTSVGDRVSITCKASQNVDTAVAWYQQKPGQSPKLLIYSASNRFPGVPDRFTGSGSGTDFTLTISNMQSEDLADYFCQQYSSYPFTFGSGTKLEIK
notes: also called anti-CK18 (clone 1P1); 克隆号1P1 anti-CK18抗体
binding result [1]: binds | binding result [2]: binds
